This note sets out measurements from US20240301046A1 (MABWELL THERAPEUTICS, published 2024).

For assay [1], the target named is T1, Aβ1-42 (rPeptide, A-1167-2) (UniProt P05067 672-713).
T1 construct: domain: Aβ1-42; also called Abeta 1-42
The assay can be described thus: direct ELISA, coated Aβ1-42. Here is the method:
Direct ELISA was used to test each antibody's affinity for Aβ₁₋₄₂ and pyroglutamate-modified Aβ (Aβₚ₃₋₄₂). Plates were coated with 0.5 μM of Aβ₁₋₄₂ (rPeptide, A-1167-2) or Aβₚ₃₋₄₂ (AnaSpec, AS-29907-01) for 2 h at 4° C. Diluents of antibodies (3-fold serial dilutions with concentrations in the range of 0-100 nM) were added to the plate for 1 h at RT. Binding of antibody to immobilized Aβ on each plate was detected by HRP-labeled secondary antibody and TMB substrate, as described in Example 2.

Assay [2] addresses T2, biotin-labelled Aβ1-40 monomer (AnaSpec, AS-61483-01) (UniProt P05067 672-711, biotin label, position not stated).
T2 construct: domain: Aβ1-40; also called biotin-conjugated Aβ40 monomer; biotin-Aβ monomer
Nature of the assay: capture ELISA, coated antibody, biotin-Aβ1-40 monomer. On the procedure: A 96-well plate was coated with 5 μg/mL of antibodies overnight at RT. The plate was then treated with diluents of biotin-labelled Aβ₁₋₄₀ monomers (AnaSpec, AS-61483-01, 4-fold serial dilutions with concentrations in the range of 0-1000 nM) for 1 h at RT. The binding of biotin-labelled Aβ₁₋₄₀ monomers with immobilized antibody was detected by HRP-conjugated streptavidin and TMB, as described in Example 2.

Assay [3] deals with HiLyte488 labelled Aβ1-42 protofibrils (UniProt P05067 672-713, HiLyte488 fluorophore on part of the peptides (labelled and unlabelled Aβ1-42 monomers mixed 1:5)). The assay can be described thus: cell-based or functional assay.

B1: 22H10A (antibody, V domains shown)
VH: EMQLVESGGGLVKPGGSLRLSCAASGFTFSSYSMNWVRQAPGKGLEWVSSISTRKNYIYYADSVQGRFIFSRDNAKNALYLQMNSLRAEDSAVYYCTRGGYIRSPNAFDIWGQGTMVTVSS
VL: QTVVTQEPSLTVSPGGTVTLTCASSTGTVTSGYFPNWLQQKPGQAPRALIYSINNKHFWTPARFSGSLLGGKAALTLSGVQPEDEAEYYCLLYYGGAWVFGGGTKLTVL
Take B1: the results for the EC50 in assay [1] and in assay [2] were 0.075 nM and 0.07 nM, respectively. Further, the “ADCP (RFU)” value in assay [3] is 99100 RFU.

B2: 17D08A (antibody, V domains shown)
VH: EVQLVESGGGLVQPGGSLKLSCAASGFTFSGSAIHWVRQASGKGLEWVGRIRSKVNSYATAYAASVKGRFTISRDDSKNTAYLQMNSLKTEDTAVYYCTRHAPNFDAFDIWGQGTMVTVSS
VL: QSVLTQPPSVSAAPGQKVTISCSGYSSNIGNHYVSWYQQLPGTAPKFFIYDNNKRPSGIPDRFSGSKSGTSATLGITGLQTGDEADYYCGTWDSSLITYVFGTGTKVTVL
As to B2, the EC50 in assay [1] came out at 0.075 nM; in assay [2] it was 0.34 nM. Moreover, the “ADCP (RFU)” value in assay [3] came out at 194000 RFU.

B3: 21G10A (antibody, V domains shown)
VH: EVQLVESGGGSVQPGGSLRLSCAASGFTFSSYWMHWVRQAPGKGLVWVSRINSDGSITTYADSVKGRFTISRDNAKNTLYLQMNSLRAEDTAVYYCARGGGSLDYWGQGTLVTVSS
VL: QSVLTQPPSVSAAPGQKVTISCSGSSSNIGNYYVSWYQQLPGTAPKLLIYDNNKRPSGIPDRFSGSKSGTSATLGITGLQTGDEADYYCGTWDSSLSAVVFGGGTKLTVL
On to B3, for which the EC50 in assay [1] came to 0.042 nM; in assay [2], 0.02 nM. For the same molecule, the “ADCP (RFU)” value in assay [3] stood at 245000 RFU.

B4: 18F06A (antibody, V domains shown)
VH: EVQLVESGGGLVQPGGSLRLSCAASGFTFSSYWMHWVRQAPGKGLVWVSRINRDGSTTSYADSVKGRFTISRDNAKNTLYLQMNRLRAEDTAVYYCARGGGAFDIWGQGTMVTVSS
VL: QSVLTQPPSVSAAPGQKVTISCSGSSSNIGNYYVSWYQQLPGTAPKLLIYDNNKRPSGIPDRFSASKSGTSATLGITGLQTGDEADYYCGTWDDSLSAVVFGGGTKLTVL
In turn, B4 yielded a concentration giving a half-maximal response (EC50) in assay [1] of 0.068 nM. Also, the “ADCP (RFU)” value in assay [3] amounted to 126000 RFU.

B5: 20O11A (antibody, V domains shown)
VH: EVQLVESGGGLVQPGGSLRLSCAASGFTFSSYWMHWVRQAPGKGLAWVARINSDGSSTSYADSVKGRFTISRDNAKNTLYLQMNSLRAEDTAVYYCARGGGLFDYWGQGTLVTVSS
VL: QSVLTQPPSVSAAPGQKVTISCSGSSSNIGNHYVSWYQQLPGTAPKLLIYDNNKRPSGIPDRFSGSKSGTSATLGITGLQTGDEADYYCGTWDSSLGAVLFGGGTKLTVL
B5: the results for the EC50 in assay [1] and in assay [2] were 0.05 nM and 0.01 nM, respectively. For the same molecule, the “ADCP (RFU)” value in assay [3] is 257000 RFU.

B6: 21F12A (antibody, V domains shown)
VH: EVQLAESGGGSVQPGGSLRLSCAASGFTFSSYWMHWVRQVPGKGLVWVSRINSDGSTTTYADSVKGRFTISRDNAKNTLYLQMNSLRAEDTAVYYCARGGGSLDYWGQGTLVTVSS
VL: QSVLTQPPSVSAAPGQKVTISCSGSSSNIGNYYVSWYQQLPGTAPKLLIYDNNKRPSGIPDRFSGSKSGTSATLGITGLRTGDEADYYCGTWDSSLSAVVFGGGTKLTVL
Take B6: the results for the EC50 in assay [1] and in assay [2] were 0.048 nM and 0.01 nM, respectively. In addition, the “ADCP (RFU)” value in assay [3] stood at 262000 RFU.

B7: 17H05A (antibody, V domains shown)
VH: EVQLVESGGGSVQPGGSLRLSCAASGFTFSSYWMHWVRQVPGKGLVWVSRINSDGSITSYADSVKGRFTISRDNAKNTLYLQMNSLRAENTAVYYCARGGGSLDYWGQGTLVTVSS
VL: QSVLTQPPSVSAAPGQKVTISCSGSSSNIGNYYVSWYQQLPGTAPKLLIYDNHKRPSGIPDRFSGSKSGTSATLGITGLQTGDEADYYCGTWDSSLSAVVFGGGTKLTVL
On to B7, for which the concentration giving a half-maximal response (EC50) in assay [1] turned out to be 0.051 nM; in assay [2], 0.02 nM. Further, the “ADCP (RFU)” value in assay [3] was determined as 279000 RFU.
